For the test, the target named is SARS-CoV-2 Omicron RBD protein (SARS-CoV-2 Omicron (BA.1), S371L | S373P | S375F). The test can be described thus: SPR. In general terms: SPR reads the build-up and loss of mass on a sensor chip optically.

B1: STS165 (full-length IgG form) (antibody, V domains shown)
VH: EVQLVESGGGVVRPGGSLRLSCAASGFTFDDYGMSWVRQAPGKGLEWVSGINWNGGSTGYADSVKGRFTISRDNAKNSLYLQMNSLRAEDTALYHCARVGYCGGDCYSLSLAGFPDYWGQGTLVTVSS
VL: not shown
For B1, the “fold decrease of binding affinity against WT RBD” value stood at 3 fold.

B2: STS165 Fab form (Fab, V domains shown)
VH: B1 VH
VL: not shown
Regarding B2, the “fold decrease of binding affinity against the IgG form” value was above 50 fold.

The values above are taken from publication PMC9116965 (iScience, 2022).
